Test system: Ir-CPI (Ixodes ricinus Contact Phase Inhibitor), recombinant, without its peptide signal

Row | Substance | activation of factor XII into factor XIIa by factor XIa, reconstituted system with purified factors, chromogenic substrate | amidolytic activity (chromogenic substrate S-2366), protease preincubated with Ir-CPI at 1:5 molar ratio | activation of factor XII into factor XIIa by kallikrein, reconstituted system with purified factors, chromogenic substrate | amidolytic activity (chromogenic substrate S-2302), protease preincubated with Ir-CPI at 1:5 molar ratio
1 | factor XIa | Ir-CPI inhibits ... the activation of factor XII into factor XIIa by factor XIa | The results obtained did not show any effect of Ir-CPI protein on the amidolytic activity of these factors | – | –
2 | kallikrein | – | – | Ir-CPI did not inhibit the activation of factor XII into factor XIIa by kallikrein | The results obtained did not show any effect of Ir-CPI protein on the amidolytic activity of these factors
